Laboratory results taken from patent US20180236031A1.

Biological target: high-affinity TrkA receptor on the TF-1 cell surface (UniProt P04629)
Test: cell-based or functional assay

UniProt P04629, sequence (P04629 33-796 limits assumed): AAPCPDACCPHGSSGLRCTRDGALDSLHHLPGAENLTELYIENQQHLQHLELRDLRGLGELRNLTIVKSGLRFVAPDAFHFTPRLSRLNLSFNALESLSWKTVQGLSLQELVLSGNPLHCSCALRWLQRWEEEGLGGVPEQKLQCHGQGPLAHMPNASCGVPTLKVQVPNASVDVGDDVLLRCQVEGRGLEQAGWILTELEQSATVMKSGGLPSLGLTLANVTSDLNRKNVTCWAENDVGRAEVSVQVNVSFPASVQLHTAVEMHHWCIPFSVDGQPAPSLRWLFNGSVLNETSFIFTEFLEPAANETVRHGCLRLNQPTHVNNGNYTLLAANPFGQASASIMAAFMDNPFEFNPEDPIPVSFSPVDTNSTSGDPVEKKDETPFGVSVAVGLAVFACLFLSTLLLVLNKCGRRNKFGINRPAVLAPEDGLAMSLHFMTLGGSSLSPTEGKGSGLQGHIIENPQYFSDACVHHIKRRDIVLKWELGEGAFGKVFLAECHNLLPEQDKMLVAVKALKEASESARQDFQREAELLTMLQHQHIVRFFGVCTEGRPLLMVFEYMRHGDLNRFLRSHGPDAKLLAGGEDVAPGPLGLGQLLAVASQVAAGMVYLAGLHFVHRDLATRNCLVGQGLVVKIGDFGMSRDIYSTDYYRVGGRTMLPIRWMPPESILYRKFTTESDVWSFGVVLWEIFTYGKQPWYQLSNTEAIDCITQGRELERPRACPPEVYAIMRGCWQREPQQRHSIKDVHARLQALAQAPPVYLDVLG

- specific activity in the TF-1 cell proliferation assay (MTT): 1.2e+06 AU mg^-1
Substance: rhNGF-CTP (long-lasting recombinant human nerve growth factor; mature NGF-CTP) (ligand)
